Ends that are not written are not given here.
Biological target: glucagon receptor (UniProt P47871 26-477, limits assumed)
Assay: cell-based or functional assay

Sequence of glucagon receptor (P47871 26-477 limits assumed): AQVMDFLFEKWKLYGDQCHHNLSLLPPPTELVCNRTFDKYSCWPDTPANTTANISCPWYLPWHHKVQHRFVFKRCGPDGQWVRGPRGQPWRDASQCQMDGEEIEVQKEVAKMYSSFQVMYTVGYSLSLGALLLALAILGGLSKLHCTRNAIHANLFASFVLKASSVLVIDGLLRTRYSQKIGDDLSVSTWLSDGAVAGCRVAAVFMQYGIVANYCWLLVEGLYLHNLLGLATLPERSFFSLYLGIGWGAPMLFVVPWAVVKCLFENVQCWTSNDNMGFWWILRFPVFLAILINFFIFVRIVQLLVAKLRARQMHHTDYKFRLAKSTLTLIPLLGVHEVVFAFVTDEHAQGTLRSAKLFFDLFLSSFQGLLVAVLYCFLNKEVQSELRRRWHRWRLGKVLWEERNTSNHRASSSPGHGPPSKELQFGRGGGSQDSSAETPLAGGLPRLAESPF

In the case of HSEGTFTSDYSKYLDEQAAKEFIC(PEG 20 kDa)WLMNT (not fully specified (C-terminus)) [Peptide V], the glucagon agonism is reported as over 10 fold reduction.

Reference: US20110257092A1 (INDIANA UNIVERSITY RESEARCH AND TECHNOLOGY, published 2011)
